Molecular target: hBUBR1 (human (endogenous in HeLa)) (UniProt O60566)
Assay: co-IP

Chain of UniProt O60566 (O60566 whole entry): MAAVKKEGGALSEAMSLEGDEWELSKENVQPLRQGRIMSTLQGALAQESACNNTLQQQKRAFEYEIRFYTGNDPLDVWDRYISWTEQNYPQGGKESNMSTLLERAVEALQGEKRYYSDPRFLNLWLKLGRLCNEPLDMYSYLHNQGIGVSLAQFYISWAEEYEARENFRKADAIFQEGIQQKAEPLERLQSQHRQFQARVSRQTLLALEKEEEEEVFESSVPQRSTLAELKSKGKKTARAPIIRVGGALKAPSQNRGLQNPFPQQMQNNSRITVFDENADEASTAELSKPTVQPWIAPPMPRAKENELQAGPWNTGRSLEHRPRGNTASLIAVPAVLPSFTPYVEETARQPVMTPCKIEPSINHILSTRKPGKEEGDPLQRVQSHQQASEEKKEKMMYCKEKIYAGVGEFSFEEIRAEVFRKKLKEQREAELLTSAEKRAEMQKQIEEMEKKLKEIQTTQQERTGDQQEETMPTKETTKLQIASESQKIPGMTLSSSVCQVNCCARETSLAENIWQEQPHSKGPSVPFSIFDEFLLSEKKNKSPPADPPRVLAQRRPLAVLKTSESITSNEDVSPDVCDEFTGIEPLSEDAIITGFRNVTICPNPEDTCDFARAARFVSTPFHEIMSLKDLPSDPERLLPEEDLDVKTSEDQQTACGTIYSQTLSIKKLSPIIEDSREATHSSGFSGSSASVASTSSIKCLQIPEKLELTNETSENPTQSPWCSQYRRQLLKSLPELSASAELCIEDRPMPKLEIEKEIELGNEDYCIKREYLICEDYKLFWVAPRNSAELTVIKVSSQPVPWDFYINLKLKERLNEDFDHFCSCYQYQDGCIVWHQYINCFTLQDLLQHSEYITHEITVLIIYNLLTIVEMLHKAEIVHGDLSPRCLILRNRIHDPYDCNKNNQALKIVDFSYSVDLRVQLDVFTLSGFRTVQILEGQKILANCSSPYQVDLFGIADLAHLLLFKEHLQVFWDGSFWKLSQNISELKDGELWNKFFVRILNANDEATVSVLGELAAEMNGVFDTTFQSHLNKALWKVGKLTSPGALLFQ

## anaphase-promoting complex/cyclosome (APC/C) from mitotic HeLa cells (from UniProt P30260;Q13042;Q9UJX3)
  stoichiometry N: 1
